Measured values reported in US20230242657A1.

Assays:
[1] = target: human OX40 on the cell surface (activated human T cells; Jurkat-OX40-NF-kB-Luc cells overexpressing human OX40) (human) (UniProt P43489); assay: cell-based or functional assay
[2] = target: recombinant OX40-Fc protein (R & D, Cat 3388-OX) (human) (UniProt P43489); assay: blocking ELISA: plate-coated OX40-Fc, serially diluted antibody, then OX40L at 50 ng/ml, bound OX40L detected
Chain of recombinant OX40-Fc protein (R & D, Cat 3388-OX) (human) (P43489 29-214): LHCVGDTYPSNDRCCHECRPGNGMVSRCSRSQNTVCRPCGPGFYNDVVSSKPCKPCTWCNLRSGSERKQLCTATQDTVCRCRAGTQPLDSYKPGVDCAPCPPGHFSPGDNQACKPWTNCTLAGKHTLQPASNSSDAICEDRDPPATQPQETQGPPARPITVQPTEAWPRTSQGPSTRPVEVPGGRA

Chain of human OX40 on the cell surface (activated human T cells; Jurkat-OX40-NF-kB-Luc cells overexpressing human OX40) (human) (P43489 29-277): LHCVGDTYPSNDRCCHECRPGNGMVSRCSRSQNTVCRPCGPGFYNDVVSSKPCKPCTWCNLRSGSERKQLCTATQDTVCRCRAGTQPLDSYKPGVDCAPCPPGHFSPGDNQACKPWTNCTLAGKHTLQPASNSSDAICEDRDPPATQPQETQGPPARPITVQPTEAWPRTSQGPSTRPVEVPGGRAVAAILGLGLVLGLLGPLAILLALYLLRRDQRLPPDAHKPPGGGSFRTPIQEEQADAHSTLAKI

B1: GBR830 (reference OX40 antagonist antibody) (antibody, INN chains, looked up, V domains shown)
VH: QVTLKESGPALVKPTQTLTLTCSFSGFSLSTSGMGVGWIRQPPGKALEWIAHIWWDDDKYYNTALKTRLTISKDTSKNQVVLTMTNMDPVDTATYYCARIDWDGFAYWGQGTLVTVSS
VL: EIVLTQSPATLSLSPGERATLSCRASSSVSYMHWYQQKPGQAPRPWIYATSNRATGIPARFSGSGSGTDYTLTISSLEPEDFAVYYCQQWSSNPWTFGQGTKVEIK
**Q.** Which results are given for B1?
**A.** IC50 of blocking the OX40L-mediated T cell activation (IFNy secretion) [1]: 1.1 nM; IC50 [2]: 0.3 nM; maximum inhibition rate [2]: 50%
